{"source": "paper PMC5514047", "target": "human ribosomal stalk protein P2 lacking the last 16 amino acids (P2ΔC) (human) (UniProt P05387)", "assay": "native MS"}
{"substance": "human ribosomal stalk protein P2 lacking the last 16 amino acids (P2ΔC) (from UniProt P05387 1-99) (domain or fragment)", "values": [{"measurement": "stoichiometry N", "value": 2}]}
